Data reported in PMC4979867, “Reconstitution of the membrane protein OmpF into biomimetic block copolymer–phospholipid hybrid membranes” (Beilstein Journal of Nanotechnology, 2016).

Molecular target: the molecule itself
Test: SDS-PAGE of the unboiled sample; purified OmpF in 1% octyl-POE, sample not boiled before SDS-PAGE

B1: outer membrane protein OmpF from Escherichia coli (natural protein, UniProt P02931 23-362, looked up)
chain: AEIYNKDGNKVDLYGKAVGLHYFSKGNGENSYGGNGDMTYARLGFKGETQINSDLTGYGQWEYNFQGNNSEGADAQTGNKTRLAFAGLKYADVGSFDYGRNYGVVYDALGYTDMLPEFGGDTAYSDDFFVGRVGGVATYRNSNFFGLVDGLNFAVQYLGKNERDTARRSNGDGVGGSISYEYEGFGIVGAYGAADRTNLQEAQPLGNGKKAEQWATGLKYDANNIYLAANYGETRNATPITNKFTNTSGFANKTQDVLLVAQYQFDFGLRPSIAYTKSKAKDVEGIGDVDLVNYFEVGATYYFNKNMSTYVDYIINQIDSDNKLGVGSDDTVAVGIVYQF
notes: Outer membrane porin OmpF, Escherichia coli, native protein from strain B^E BL21(DE3)omp6 (lacks LamB and OmpC); no residues or identifiers printed; The protein here comes from an E. coli B strain, whose OmpF may differ from it at a few positions; also called native OmpF protein
stoichiometry N: 3
